What was measured:
[1] = molecular target: T1, Human CD93 on cells (human CD93 expressing CHO cells; HUVEC, U937 and KG1a cells) (human, UniProt Q9NPY3 22-652); assay: flow cytometry titration, KG1a cells
T1 construct: whole, on cells; also called hCD93 expressing CHO cells; hCD93 CHO cells
T1 sequence (looked up): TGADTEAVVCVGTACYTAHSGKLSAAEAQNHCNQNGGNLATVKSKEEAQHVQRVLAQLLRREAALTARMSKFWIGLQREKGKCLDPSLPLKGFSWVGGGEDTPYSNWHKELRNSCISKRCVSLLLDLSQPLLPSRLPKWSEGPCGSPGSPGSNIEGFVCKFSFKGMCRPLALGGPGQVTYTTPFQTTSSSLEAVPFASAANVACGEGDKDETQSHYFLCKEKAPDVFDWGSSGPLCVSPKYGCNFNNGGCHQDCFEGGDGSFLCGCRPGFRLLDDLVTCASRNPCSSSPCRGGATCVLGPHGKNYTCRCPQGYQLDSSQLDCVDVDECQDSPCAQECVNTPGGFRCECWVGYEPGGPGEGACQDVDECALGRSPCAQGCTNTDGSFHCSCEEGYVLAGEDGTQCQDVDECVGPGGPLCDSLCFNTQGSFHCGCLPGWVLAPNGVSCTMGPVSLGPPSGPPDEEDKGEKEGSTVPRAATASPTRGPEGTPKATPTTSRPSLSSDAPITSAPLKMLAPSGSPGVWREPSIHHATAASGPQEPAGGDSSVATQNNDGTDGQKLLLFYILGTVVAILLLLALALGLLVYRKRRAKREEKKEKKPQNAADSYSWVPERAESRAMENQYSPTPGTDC
Method: (§1) KG1a cells were detached by incubation with TrypLE reagents (Thermo Fisher), which preserves the integrity of CD93 on the cell surface. Then the cells were incubated with serial diluted anti-CD93 antibodies for 30 minutes at 4° C. After washing by FACS buffer, the cells were incubated with Alexa Fluor 647 conjugated anti-human IgG (Jackson ImmunoResearch) for 30 minutes in 4° C. After washing by FACS buffer twice, the samples were acquired in NovoCyte Flow Cytometer and analyzed by NovoExpress software.

[2] = molecular target: T2, Human CD93 recombinant protein (Sino Biological Inc, Catalog #12589-H08H) (human, UniProt Q9NPY3 22-580); assay: ELISA, His-tagged human CD93 coated, OD450
T2 construct: Biotinylated (EZ-LINK NHS-PEG4 biotin) in the BLI assays; also called hCD93; His-tagged human CD93
T2 sequence (looked up): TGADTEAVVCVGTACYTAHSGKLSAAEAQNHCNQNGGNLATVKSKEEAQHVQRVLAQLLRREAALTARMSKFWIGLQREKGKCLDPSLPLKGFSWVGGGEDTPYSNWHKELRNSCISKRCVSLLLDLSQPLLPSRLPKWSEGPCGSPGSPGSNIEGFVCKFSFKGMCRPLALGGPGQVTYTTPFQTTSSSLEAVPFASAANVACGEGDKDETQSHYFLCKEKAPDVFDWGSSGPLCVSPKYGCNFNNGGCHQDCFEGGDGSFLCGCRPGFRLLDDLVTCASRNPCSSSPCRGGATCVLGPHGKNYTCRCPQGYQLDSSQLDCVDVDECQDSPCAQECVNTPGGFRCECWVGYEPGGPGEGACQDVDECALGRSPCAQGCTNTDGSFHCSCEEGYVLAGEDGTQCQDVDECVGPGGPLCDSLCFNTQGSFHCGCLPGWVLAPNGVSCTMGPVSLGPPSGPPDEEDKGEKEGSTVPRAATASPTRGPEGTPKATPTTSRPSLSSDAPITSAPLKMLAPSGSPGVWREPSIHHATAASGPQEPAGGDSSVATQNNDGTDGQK
Method: (§2) His-tagged human CD93 was coated onto a 96 well plate at 1 μg/mL in 1×PBS overnight at 4° C. The plate was washed with ELISA wash buffer (Boston BioProduct, Inc.) and the wells were blocked with ELISA blocking buffer for 1 hour at 37° C. […] The plate was washed with ELISA wash Buffer. HRP-conjugated anti-human Fc antibody was incubated for 1 hour at 37° C. The plate was washed with ELISA wash Buffer. HRP substrate was added for indirect detection of the antibodies binding to CD93.

[3] = molecular target: T2, Human CD93 recombinant protein (Sino …); assay: summary table, column ELISA (hCD93); 4 weeks at 40 C
Method: as §2, §2

[4] = molecular target: T2, Human CD93 recombinant protein (Sino …); assay: summary table, column Octet (hCD93); 4 weeks at 40 C
Method: (§3) The binding affinity of anti-CD93 antibodies was determined with bio-layer interferometry using Octet QKe (Fortebio). […] Human CD93 recombinant protein (Sino Biological Inc, Catalog #12589-H08H) was biotinylated using EZ-LINK NHS-PEG4 biotin (Thermo Fisher Scientific). Streptavidin biosensors (Fortebio) were used to load biotinylated CD93 protein (300 seconds in 5 μg/ml). Baseline was stabilized for 60 seconds in 1×kinetics buffer (Fortebio) before anti-CD93 antibodies, at a serial dilution, were allowed to associate for 300 seconds with captured protein. Then the sensors were dissociated in 1× kinetics buffer for 600 seconds. […] (FIG. 41).
as §3, with “1× kinetics” for “1×kinetics”, “42).” for “41).”

[5] = molecular target: T1, Human CD93 on cells (human CD93 …); assay: summary table, column FACS (KG1a cells); 2 weeks at 40 C
Method: as §1, §1

[6] = molecular target: T1, Human CD93 on cells (human CD93 …); assay: flow cytometry titration, KG1a cells; antibody stored 2 weeks at 40 C
Method: as §1

[7] = molecular target: T1, Human CD93 on cells (human CD93 …); assay: summary table, column FACS (HUVEC cells)

| Binder | EC50 [1] [nM] | EC50 [2] [nM] | EC50 [3] [nM] | Kd [4] [nM] | EC50 [5] [nM] | EC50 [6] [nM] | EC50 [7] [nM] |
| --- | --- | --- | --- | --- | --- | --- | --- |
| h16E4 (humanized 16E4, VH4+VL6) (antibody, V domains shown, Detected with anti-human IgG, so a human Fc) VH: QVQLVQSGAEVKKPGASVKVSCKASGYTFTSYWMHWVRQAPGQGLEWMGEIDPSASYTYYNQKFKGRVTMTRDKSSSTVYMELSSLTSEDSAVYYCARSVYYGNKYFDVWGAGTTVTVSS VL: DIQMTQSPSTLSASVGDRVTITCKASQSVDYAGDSYMNWYQQKPGKAPKLLIYAASNLESGVPSRFSGSGSGTEFTLTISSLQPDDFATYYCQQTNEDPRTFGGGTKLEIK | 0.131 | 0.033 | 0.051 | 0.112 | 0.113 | 0.113 | – |
| h7F3 (humanized 7F3, VH3+VL3) (antibody, human IgG1, V domains shown, also called humanized 7F3-hIgG1) VH: QVQLVQSGAEVKKPGASVKVSCKASGYTFTDYEMHWVRQAPGQGLEWMGGIDPETGDTAYNQNFKGRVTMTTDTSTSTAYMELRSLTSDDTAVYYCTNYGNLYYYAMDYWGQGTSVTVSS VL: EIVLTQSPSSLSASVGDRVTITCRASSSVSSSYLHWYQQKPGKAPKLLIYSTSNLAFGVPSRFSGSGSGTSYTFTISSLQPEDIATYYCQQYSGYPLTFGSGTKLEIK | 0.024 | 0.0427 | 0.0407 | 0.487 | 0.021 | 0.021 | 1.34 |
| 16E4 (hybridoma) (antibody, IgG2a, V domains shown, also called 16E4 mAb; 16E4 mIgG2a) VH: QVQLQQPGAELVKPGASVKLSCKASGYTFTSYWMHWVKQRPGQGLEWIGEIDPSASYTYYNQKFKGKATLTVDKSSSTAYMQLSSLTSEDSAVYYCARSVYYGNKYFDVWGAGTTVTVSS VL: not shown | – | – | – | – | – | – | 0.2 |
